# Data from patent publication US20210155689A1 (SHANGHAI PHARMAEXPLORER, published 2021).
# T1: LAG-3-hFc protein (human LAG-3 extracellular region with hFc tag) (human, UniProt P18627 23-450)
# T1 construct: also called hLAG-3-hFc; LAG-3 protein; not shown: human IgG Fc fragment (hFc) of the pCpC vector
# T1 sequence: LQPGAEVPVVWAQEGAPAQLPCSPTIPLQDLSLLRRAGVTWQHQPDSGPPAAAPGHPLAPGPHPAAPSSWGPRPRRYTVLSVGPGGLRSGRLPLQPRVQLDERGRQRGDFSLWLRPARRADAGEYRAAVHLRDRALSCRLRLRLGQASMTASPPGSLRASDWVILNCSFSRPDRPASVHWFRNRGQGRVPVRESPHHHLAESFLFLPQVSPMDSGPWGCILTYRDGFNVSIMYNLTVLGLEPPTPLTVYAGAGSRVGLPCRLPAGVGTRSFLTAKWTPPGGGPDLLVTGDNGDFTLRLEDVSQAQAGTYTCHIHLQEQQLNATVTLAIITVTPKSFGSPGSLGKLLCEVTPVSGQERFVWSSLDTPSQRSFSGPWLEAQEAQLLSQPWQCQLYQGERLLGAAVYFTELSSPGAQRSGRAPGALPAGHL
# T2: human LAG-3 (full length, on the cell surface) (human, UniProt P18627 23-525)
# T2 construct: Full-length human LAG-3 expressed on cells; also called HEK293-hLAG-3; HEK293 cells transfected with LAG-3 gene
# T2 sequence: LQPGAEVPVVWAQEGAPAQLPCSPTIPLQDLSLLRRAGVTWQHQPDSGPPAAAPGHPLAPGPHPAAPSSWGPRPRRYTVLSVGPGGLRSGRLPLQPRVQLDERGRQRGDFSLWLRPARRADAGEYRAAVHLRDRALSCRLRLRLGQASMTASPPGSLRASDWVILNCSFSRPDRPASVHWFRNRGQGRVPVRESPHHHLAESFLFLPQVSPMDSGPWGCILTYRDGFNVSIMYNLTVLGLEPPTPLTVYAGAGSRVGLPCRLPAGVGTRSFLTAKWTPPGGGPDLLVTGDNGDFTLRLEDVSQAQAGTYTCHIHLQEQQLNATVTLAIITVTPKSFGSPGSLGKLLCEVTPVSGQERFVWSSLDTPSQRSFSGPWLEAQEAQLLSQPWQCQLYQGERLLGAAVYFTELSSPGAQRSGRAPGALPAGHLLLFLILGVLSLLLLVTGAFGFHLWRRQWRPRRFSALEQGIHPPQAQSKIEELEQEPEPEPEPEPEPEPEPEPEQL
# T3: mouse LAG-3 protein with hFc tag (mLAG-3-hFc protein) (mouse; human, UniProt Q61790 24-442)
# T3 construct: Made in HEK293 cells; also called mouse LAG-3 extracellular domain protein; not shown: human IgG Fc fragment (hFc) of the pCpC vector
# T3 sequence: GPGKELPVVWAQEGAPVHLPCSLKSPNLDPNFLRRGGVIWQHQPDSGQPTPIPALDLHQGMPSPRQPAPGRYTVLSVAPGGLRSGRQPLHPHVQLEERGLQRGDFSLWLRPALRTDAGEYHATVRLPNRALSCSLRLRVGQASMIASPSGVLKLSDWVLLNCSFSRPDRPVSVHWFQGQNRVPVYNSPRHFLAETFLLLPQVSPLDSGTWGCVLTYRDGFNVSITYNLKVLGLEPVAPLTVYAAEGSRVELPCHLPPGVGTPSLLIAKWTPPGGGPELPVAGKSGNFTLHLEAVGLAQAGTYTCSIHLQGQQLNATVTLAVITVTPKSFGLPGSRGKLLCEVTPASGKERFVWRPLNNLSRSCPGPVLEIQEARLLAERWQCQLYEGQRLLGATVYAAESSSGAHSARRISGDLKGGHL
# Target: T1, LAG-3-hFc protein (human LAG-3 …)
# Test: FACS, inhibition of LAG-3-hFc binding to MHC II on Raji cells, antibody 66.667 nM
# Description: The FACS reaction plate incubating the Raji cells was centrifuged to discard the supernatant. The above mixture was added as 100 μl per well to Raji cells and incubated on ice for 1-2 hours. The plate was washed twice with blocking solution (PBS, 2% fetal bovine serum) by centrifugation, added with 100 microliters of fluorescent (Alexa 488)-labeled secondary antibodies per well, and incubated on ice for 1.0 hours. The plate was washed 2-3 times by centrifugation with blocking solution (PBS, 2% fetal bovine serum), added with 100 microliters of PBS per well to suspend cells, and detected using FACS (FACS Calibur, BD) and the results were analyzed. Wherein, the IgG control was murine IgG, and the data in the table is the inhibition rate (%).
row,Binder,Inhibition rate (%)
1,"556F6B8 mouse-human chimeric antibody (antibody, V domains shown, also called mAb123-556F6B8; 556F8B8) VH: RVQLKQSGPGLVQPSQSLSITCTVSGFSLIKYGVHWVRQSPGEGLEWLGVIWRGGITDYNAAFMSRLSITKDNSKSQVFFKMNSLQADDTAIYYCAKWDGPLAMDYWGQGTSVTVSS VL: DIVMTQSHKFLSTSVGDRVSITCKASQDVGTTVAWYQQKPGQSPKLLIYWASTRHTGVPDRFTGSGSGTDFTLTISNVQSEDLADYFCQQYSSYPYTFGGGTKLEIK",96%

# Target: T2, human LAG-3 (full length, on the cell …)
# Test: FACS, HEK293-hLAG-3; 0.320 nM
# From the text: The pIRES plasmid with the monkey-derived full-length gene was transfected into the HEK293 cell line to construct a HEK293 stable cell line containing monkey LAG-3 (herein referred to as HEK293-cLAG-3 stable cell line). The HEK293-hLAG-3 stable cell line and HEK293-cLAG-3 stable cell line were expanded in a T-75 cell culture flask to a 90% confluence. The medium was aspirated, and the cells were washed with HBSS (Hanks' Balanced Salt Solution) 1-2 times, then treated with a enzyme-free cell dissociation fluid (Versene solution: Life technology) and the cells were collected. The cells were washed with HBSS buffer for 1-2 times. After counted, the cells were diluted with HBSS to 1-2×10⁶ cells per ml, added with 1% goat serum blocking solution, incubated on ice for 20-30 minutes, and then washed with HBSS for 2 times by centrifugation. The collected cells were suspended in the FACS buffer (HBSS+1% BSA) to 2×10⁶ cells/ml, added as 100 microliters per well to a 96-well FACS reaction plate, added with 100 microliters per well of the antibody sample to be tested, incubated on ice for 1-2 hours. The plate was washed twice with the FACS buffer by centrifugation, added with 100 microliters of fluorescent (Alexa 488)-labeled secondary antibodies per well, and incubated on ice for 0.5-1.0 hours. The plate was washed 2-3 times with FACS buffer by centrifugation, added with 100 μl fixative solution (4% Paraformaldehyde) per well to suspend the cells. 5-10 minutes later, it was washed 1-2 times with FACS buffer by centrifugation. The cells were suspended with 100 microliters of FACS buffer, FACS (FACSCalibur, BD) was used for detection and the results were analyzed.
row,Binder,Mean fluorescence intensity
1,"556F6B8 (mouse antibody purified from hybridoma) (antibody, V domains shown, also called mAb123-556F6B8) VH: RVQLKQSGPGLVQPSQSLSITCTVSGFSLIKYGVHWVRQSPGEGLEWLGVIWRGGITDYNAAFMSRLSITKDNSKSQVFFKMNSLQADDTAIYYCAKWDGPLAMDYWGQGTSVTVSS VL: DIVMTQSHKFLSTSVGDRVSITCKASQDVGTTVAWYQQKPGQSPKLLIYWASTRHTGVPDRFTGSGSGTDFTLTISNVQSEDLADYFCQQYSSYPYTFGGGTKLEIK",16.1 MFI
2,"405B8H3 (mouse antibody purified from hybridoma) (antibody, V domains shown, also called mAb103-405B8H3; 405B81-13) VH: QVQLQQSGAELVRPGASVTLSCKASGYTFTDYEMHWVKQTPVHGLEWIGATDPETGNSAYNQKFKGKAIMTADKSSSTAYMELRSLTSEDSAVYYCISTGWNDWGQGTSLTVSS VL: DIKMTQSPSSMYASLGERVTITCKASQDINSYLSWFQQKPGKSPKTLIYRADRLLDGVPSRFSGSGSGQDYSLTISSLEYGDMGIYYCLQYDEFPYTFGGGTKLEIK",24.7 MFI
3,"105F1E10 (mouse antibody purified from hybridoma) (antibody, V domains shown, also called mAb009-105F1E10) VH: EVQLQQSGPELVKPGASVKMSCRASGYTFTDFKMHWMKQSHGKSLEWIGYIAPNNGGTAYNQKFRGKATLTVNESSNTAYMELRSLTSEDSAVYYCVDWDDVDYWGQGTTLTVSS VL: DIKMTQSPSSMYASLGERVTITCKASQDINSYLSWFQQKSGKSPKTLIYRANRLVDGVPSRFSGSGSGQDYSLTISSLEYEDMGIYYCLQYVEFPLTFGAGTKLELK",23.3 MFI
4,"409D4E10 (mouse antibody purified from hybridoma) (antibody, V domains shown, also called mAb112-409D4E10) VH: QVQLQQSGAELVRPGASVTLSCKASGNTFTDYEMHWVKQTPVHGLEWIGATDPETDNTAYNQKFKGKAILTTDKSSSTAYMELRSLTSEDSAVYYCITSGWNDWGQGTSLTVSS VL: DIKMTQSPSSMYASLGERVTITCKASQDINSYLSWFQQKPGKSPKTLIYRANRLLDGVPSRFSGSGSGQDYSLTISSLEYEDMGIYYCLQYNEFPYTFGGGTKLEIK",13 MFI
5,"409B11E12 (mouse antibody purified from hybridoma) (antibody, V domains shown, also called mAb104-409B11E12) VH: QVQLQQSGAELVRPGASVTLSCKASGYTFTDYEMHWVKQTTVHGLEWIGATDPETSYSAYNQKFKGKAILTADKSSSTAYMELRSLTSEDSAVYYCIATGWNDWGQGTSLTVSS VL: DLKMTQSPSSMYASLGERVTITCKASQDINSYLSWFQQKPGKSPKTLIYRANRLLDGVPSRFSGSGSGQDYSLTISSLEYEDMGIYYCLQYDEFPYTFGGGTKLEIK",13.4 MFI

# Target: T3, mouse LAG-3 protein with hFc tag …
# Test: ELISA, mLAG-3-hFc coated; 6.6667 nM
# Description: The plate was sealed with plastic film and incubated overnight at 4° C. The plate was washed 2 times with the plate washing solution (PBS+0.01% Tween20) on the next day, and added with the blocking solution (PBS+0.01% Tween20+1% BSA) and blocked at room temperature for 1-2 hours. The blocking solution was poured out, and the plate was added with 50-100 μl of the antibody sample to be tested to each well, incubated at 37° C. for 1-2 hours, and washed 2-3 times with a plate washing solution (PBS+0.01% Tween20). HRP (horseradish peroxidase) labeled secondary antibody was added, and the plate was incubated at 37° C. for 1-2 hours, and washed 2-3 times with a plate washing solution (PBS+0.01% Tween20). 100 μl of TMB substrate was added to each well. After incubated at room temperature for 15-30 minutes, the plate was added with 100 μl of stop solution (1.0N HCl) to each well.
row,Binder,OD450
1,"556F6B8 (LAG-3 mouse-human chimeric antibody) (antibody, V domains shown, also called 556F8B8) VH: RVQLKQSGPGLVQPSQSLSITCTVSGFSLIKYGVHWVRQSPGEGLEWLGVIWRGGITDYNAAFMSRLSITKDNSKSQVFFKMNSLQADDTAIYYCAKWDGPLAMDYWGQGTSVTVSS VL: DIVMTQSHKFLSTSVGDRVSITCKASQDVGTTVAWYQQKPGQSPKLLIYWASTRHTGVPDRFTGSGSGTDFTLTISNVQSEDLADYFCQQYSSYPYTFGGGTKLEIK",0.36 OD450
2,"405B8H3 (LAG-3 mouse-human chimeric antibody) (antibody, V domains shown, also called mouse-human chimeric antibody 405B8H3) VH: QVQLQQSGAELVRPGASVTLSCKASGYTFTDYEMHWVKQTPVHGLEWIGATDPETGNSAYNQKFKGKAIMTADKSSSTAYMELRSLTSEDSAVYYCISTGWNDWGQGTSLTVSS VL: DIKMTQSPSSMYASLGERVTITCKASQDINSYLSWFQQKPGKSPKTLIYRADRLLDGVPSRFSGSGSGQDYSLTISSLEYGDMGIYYCLQYDEFPYTFGGGTKLEIK",0.34 OD450
3,"105F1E10 (LAG-3 mouse-human chimeric antibody) (antibody, V domains shown) VH: EVQLQQSGPELVKPGASVKMSCRASGYTFTDFKMHWMKQSHGKSLEWIGYIAPNNGGTAYNQKFRGKATLTVNESSNTAYMELRSLTSEDSAVYYCVDWDDVDYWGQGTTLTVSS VL: DIKMTQSPSSMYASLGERVTITCKASQDINSYLSWFQQKSGKSPKTLIYRANRLVDGVPSRFSGSGSGQDYSLTISSLEYEDMGIYYCLQYVEFPLTFGAGTKLELK",0.14 OD450
4,"409D4E10 (LAG-3 mouse-human chimeric antibody) (antibody, V domains shown) VH: QVQLQQSGAELVRPGASVTLSCKASGNTFTDYEMHWVKQTPVHGLEWIGATDPETDNTAYNQKFKGKAILTTDKSSSTAYMELRSLTSEDSAVYYCITSGWNDWGQGTSLTVSS VL: DIKMTQSPSSMYASLGERVTITCKASQDINSYLSWFQQKPGKSPKTLIYRANRLLDGVPSRFSGSGSGQDYSLTISSLEYEDMGIYYCLQYNEFPYTFGGGTKLEIK",0.23 OD450
5,"409B11E12 (LAG-3 mouse-human chimeric antibody) (antibody, V domains shown) VH: QVQLQQSGAELVRPGASVTLSCKASGYTFTDYEMHWVKQTTVHGLEWIGATDPETSYSAYNQKFKGKAILTADKSSSTAYMELRSLTSEDSAVYYCIATGWNDWGQGTSLTVSS VL: DLKMTQSPSSMYASLGERVTITCKASQDINSYLSWFQQKPGKSPKTLIYRANRLLDGVPSRFSGSGSGQDYSLTISSLEYEDMGIYYCLQYDEFPYTFGGGTKLEIK",0.31 OD450
